Results taken from patent US20110054149A1 (published 2011).

T1: GST-human NOGO-A56 (human, UniProt Q9NQC3 586-785)
T1 construct: also called hNOGO; recombinant human NOGO; not shown: Glutathione S-transferase (GST) tag encoded by vector pGEX-6P1, N-terminal to the NOGO-A fragment; the tag and linker se
T1 sequence: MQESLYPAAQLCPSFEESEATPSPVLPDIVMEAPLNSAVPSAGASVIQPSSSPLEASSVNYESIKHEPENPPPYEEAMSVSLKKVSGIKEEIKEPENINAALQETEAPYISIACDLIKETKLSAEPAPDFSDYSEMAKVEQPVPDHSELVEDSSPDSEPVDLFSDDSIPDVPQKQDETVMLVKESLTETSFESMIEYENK

B1: H14L13 (antibody, human IgG1, kappa, V domains shown)
VH: QVQLVQSGAEVVKPGASVKLSCKASGYTFTSYWMHWVKQAPGQGLEWIGNINPSNGGTNYNEKFKSRATLTRDTSTSTAYMELSSLRSEDTAVYYCELGQGYWGQGTLVTVSS
VL: DIVMTQSPLSLPVTLGQPASISCRSSKSLLYKDGKTYLNWFQQRPGQSPQLLIYLMSTRASGVPDRFSGGGSGTDFTLKISRVEAEDVGVYYCQQLVEYPLTFGQGTKLEIKR
notes: Humanised 2A10; tested as CHO-K1 transfection supernatant; Human gamma-1 mutated constant region, human kappa
B2: H6L15 (antibody, human IgG1, kappa, V domains shown)
VH: QVQLVQSGAEVKKPGASVKVSCKASGYTFTSYWMHWVRQAPGQGLEWIGNINPSNGGTNYNEKFKSRATMTRDTSTSTAYMELSSLRSEDTAVYYCELGQGYWGQGTLVTVSS
VL: DIVMTQSPLSLPVTLGQPASISCRSSKSLLYKDGKTYLNWFLQRPGQSPQLLIYLMSTRASGVSDRFSGGGSGTDFTLKISRVEAEDVGVYYCQQLVEYPLTFGQGTKLEIKR
notes: as for B1
B3: H6L18 (antibody, human IgG1, kappa, V domains shown)
VH: QVQLVQSGAEVKKPGASVKVSCKASGYTFTSYWMHWVRQAPGQGLEWIGNINPSNGGTNYNEKFKSRATMTRDTSTSTAYMELSSLRSEDTAVYYCELGQGYWGQGTLVTVSS
VL: DIVMTQDPLSNPVTLGQPVSISCRSSKSLLYKDGKTYLNWFLQRPGQSPQLLIYLMSTRASGVSDRFSGSGSGTDFTLKISRVEAEDVGVYYCQQLVEYPLTFGQGTKLEIKR
notes: as for B1
B4: H15L13 (antibody, human IgG1, kappa, V domains shown)
VH: QVQLVQSGAEVVKPGASVKLSCKASGYTFTSYWMHWVKQRPGQGLEWIGNINPSNGGTNYNEKFKSKATLTVDTSSSTAYMELSSLRSEDSAVYYCELGQGYWGQGTLVTVSS
VL: DIVMTQSPLSLPVTLGQPASISCRSSKSLLYKDGKTYLNWFQQRPGQSPQLLIYLMSTRASGVPDRFSGGGSGTDFTLKISRVEAEDVGVYYCQQLVEYPLTFGQGTKLEIKR
notes: as for B1
B5: H16L13 (antibody, human IgG1, kappa)
heavy: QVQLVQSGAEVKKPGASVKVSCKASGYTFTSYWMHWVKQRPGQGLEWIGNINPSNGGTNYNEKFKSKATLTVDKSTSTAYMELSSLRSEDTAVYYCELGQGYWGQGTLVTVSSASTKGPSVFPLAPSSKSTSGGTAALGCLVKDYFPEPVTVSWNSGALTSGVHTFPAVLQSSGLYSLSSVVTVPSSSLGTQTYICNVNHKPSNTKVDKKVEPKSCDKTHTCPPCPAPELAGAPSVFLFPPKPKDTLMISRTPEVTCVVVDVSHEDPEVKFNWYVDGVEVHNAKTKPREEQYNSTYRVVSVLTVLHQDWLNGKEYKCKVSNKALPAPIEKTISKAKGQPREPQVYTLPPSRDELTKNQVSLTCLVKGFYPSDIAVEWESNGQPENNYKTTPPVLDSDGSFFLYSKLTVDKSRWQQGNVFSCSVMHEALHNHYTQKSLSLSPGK
light: DIVMTQSPLSLPVTLGQPASISCRSSKSLLYKDGKTYLNWFQQRPGQSPQLLIYLMSTRASGVPDRFSGGGSGTDFTLKISRVEAEDVGVYYCQQLVEYPLTFGQGTKLEIKRTVAAPSVFIFPPSDEQLKSGTASVVCLLNNFYPREAKVQWKVDNALQSGNSQESVTEQDSKDSTYSLSSTLTLSKADYEKHKVYACEVTHQGLSSPVTKSFNRGEC
notes: as for B1
B6: H6L16 (antibody, human IgG1, kappa)
heavy: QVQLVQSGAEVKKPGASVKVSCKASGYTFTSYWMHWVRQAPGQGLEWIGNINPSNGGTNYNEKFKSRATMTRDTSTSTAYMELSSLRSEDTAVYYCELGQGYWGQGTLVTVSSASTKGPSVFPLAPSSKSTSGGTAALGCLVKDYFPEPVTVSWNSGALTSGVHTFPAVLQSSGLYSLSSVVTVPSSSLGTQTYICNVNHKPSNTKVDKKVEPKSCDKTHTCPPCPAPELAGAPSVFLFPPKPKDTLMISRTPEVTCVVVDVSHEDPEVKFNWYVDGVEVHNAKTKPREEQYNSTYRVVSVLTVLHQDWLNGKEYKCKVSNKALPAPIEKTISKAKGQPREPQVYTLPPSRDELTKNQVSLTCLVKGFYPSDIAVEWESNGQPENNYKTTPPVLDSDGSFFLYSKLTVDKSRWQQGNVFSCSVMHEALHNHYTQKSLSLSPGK
light: DIVMTQSPLSNPVTLGQPVSISCRSSKSLLYKDGKTYLNWFLQRPGQSPQLLIYLMSTRASGVPDRFSGGGSGTDFTLKISRVEAEDVGVYYCQQLVEYPLTFGQGTKLEIKRTVAAPSVFIFPPSDEQLKSGTASVVCLLNNFYPREAKVQWKVDNALQSGNSQESVTEQDSKDSTYSLSSTLTLSKADYEKHKVYACEVTHQGLSSPVTKSFNRGEC
notes: as for B1
B7: H6L14 (antibody, human IgG1, kappa)
heavy: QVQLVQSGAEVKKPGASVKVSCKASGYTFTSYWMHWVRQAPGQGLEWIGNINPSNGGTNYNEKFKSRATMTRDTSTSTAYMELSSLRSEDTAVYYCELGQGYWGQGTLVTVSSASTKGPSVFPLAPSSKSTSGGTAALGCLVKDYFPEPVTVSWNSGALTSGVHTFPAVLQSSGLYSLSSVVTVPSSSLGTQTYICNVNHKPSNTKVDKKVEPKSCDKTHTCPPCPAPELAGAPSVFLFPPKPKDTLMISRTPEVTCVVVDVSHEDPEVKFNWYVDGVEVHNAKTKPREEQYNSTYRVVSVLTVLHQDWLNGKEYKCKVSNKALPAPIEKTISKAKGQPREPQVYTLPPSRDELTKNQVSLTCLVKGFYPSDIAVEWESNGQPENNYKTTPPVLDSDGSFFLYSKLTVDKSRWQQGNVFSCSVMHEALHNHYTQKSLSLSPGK
light: DIVMTQSPLSLPVTLGQPASISCRSSKSLLYKDGKTYLNWFLQRPGQSPQLLIYLMSTRASGVPDRFSGGGSGTDFTLKISRVEAEDVGVYYCQQLVEYPLTFGQGTKLEIKRTVAAPSVFIFPPSDEQLKSGTASVVCLLNNFYPREAKVQWKVDNALQSGNSQESVTEQDSKDSTYSLSSTLTLSKADYEKHKVYACEVTHQGLSSPVTKSFNRGEC
notes: as for B1
B8: H15L18 (antibody, human IgG1, kappa, V domains shown)
VH: QVQLVQSGAEVVKPGASVKLSCKASGYTFTSYWMHWVKQRPGQGLEWIGNINPSNGGTNYNEKFKSKATLTVDTSSSTAYMELSSLRSEDSAVYYCELGQGYWGQGTLVTVSS
VL: DIVMTQDPLSNPVTLGQPVSISCRSSKSLLYKDGKTYLNWFLQRPGQSPQLLIYLMSTRASGVSDRFSGSGSGTDFTLKISRVEAEDVGVYYCQQLVEYPLTFGQGTKLEIKR
notes: as for B1
B9: H15L16 (antibody, human IgG1, kappa, V domains shown)
VH: QVQLVQSGAEVVKPGASVKLSCKASGYTFTSYWMHWVKQRPGQGLEWIGNINPSNGGTNYNEKFKSKATLTVDTSSSTAYMELSSLRSEDSAVYYCELGQGYWGQGTLVTVSS
VL: DIVMTQSPLSNPVTLGQPVSISCRSSKSLLYKDGKTYLNWFLQRPGQSPQLLIYLMSTRASGVPDRFSGGGSGTDFTLKISRVEAEDVGVYYCQQLVEYPLTFGQGTKLEIKR
notes: as for B1
B10: H6L17 (antibody, human IgG1, kappa, V domains shown)
VH: QVQLVQSGAEVKKPGASVKVSCKASGYTFTSYWMHWVRQAPGQGLEWIGNINPSNGGTNYNEKFKSRATMTRDTSTSTAYMELSSLRSEDTAVYYCELGQGYWGQGTLVTVSS
VL: DIVMTQDPLSLPVTLGQPASISCRSSKSLLYKDGKTYLNWFQQRPGQSPQLLIYLMSTRASGVSDRFSGSGSGTDFTLKISRVEAEDVGVYYCQQLVEYPLTFGQGTKLEIKR
notes: as for B1
B11: H10L13 (antibody, V domains shown)
VH: QVQLVQSGAEVKKPGASVKLSCKASGYTFTSYWMHWVKQAPGQGLEWIGNINPSNGGTNYNEKFKSRATLTVDKSTSTAYMELSSLRSEDTAVYYCELGQGYWGQGTLVTVSS
VL: DIVMTQSPLSLPVTLGQPASISCRSSKSLLYKDGKTYLNWFQQRPGQSPQLLIYLMSTRASGVPDRFSGGGSGTDFTLKISRVEAEDVGVYYCQQLVEYPLTFGQGTKLEIK
B12: H700L11 (antibody, human IgG1, kappa, V domains shown)
VH: QVQLVQSGAEVKKPGASVKVSCKASGYTFTSYWMHWVRQAPGQGLEWIGNINPSNGGTNYNEKFKSRATLTVDKSTSTAYMELSSLRSEDTAVYYCELGQGYWGQGTLVTVSS
VL: DIVITQSPLSLPVTLGQPASISCRSSKSLLYKDGKTYLNWFQQRPGQSPQLLIYLMSTRASGVPDRFSGGGSGTDFTLKISRVEAEDVGVYYCQQLVEYPLTFGQGTKLEIKR
notes: Humanised 2A10; human gamma-1 mutated constant region, human kappa
B13: HcL13 (antibody, human IgG1, kappa)
heavy: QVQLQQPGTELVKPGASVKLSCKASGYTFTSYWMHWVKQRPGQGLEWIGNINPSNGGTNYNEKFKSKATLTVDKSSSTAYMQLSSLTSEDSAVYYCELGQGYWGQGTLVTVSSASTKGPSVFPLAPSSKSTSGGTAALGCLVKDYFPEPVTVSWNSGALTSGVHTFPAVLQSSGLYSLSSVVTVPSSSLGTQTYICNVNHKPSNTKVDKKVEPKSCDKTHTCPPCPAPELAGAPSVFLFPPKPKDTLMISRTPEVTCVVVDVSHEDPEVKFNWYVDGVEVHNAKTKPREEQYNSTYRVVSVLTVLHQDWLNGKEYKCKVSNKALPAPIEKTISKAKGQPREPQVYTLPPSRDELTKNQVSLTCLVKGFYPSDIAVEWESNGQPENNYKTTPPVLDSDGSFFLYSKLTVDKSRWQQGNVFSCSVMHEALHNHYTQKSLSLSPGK
light: DIVMTQSPLSLPVTLGQPASISCRSSKSLLYKDGKTYLNWFQQRPGQSPQLLIYLMSTRASGVPDRFSGGGSGTDFTLKISRVEAEDVGVYYCQQLVEYPLTFGQGTKLEIKRTVAAPSVFIFPPSDEQLKSGTASVVCLLNNFYPREAKVQWKVDNALQSGNSQESVTEQDSKDSTYSLSSTLTLSKADYEKHKVYACEVTHQGLSSPVTKSFNRGEC
notes: Chimeric heavy chain Hc paired with humanised light chain L13
B14: H6L6 (antibody, human IgG1, kappa, V domains shown)
VH: QVQLVQSGAEVKKPGASVKVSCKASGYTFTSYWMHWVRQAPGQGLEWIGNINPSNGGTNYNEKFKSRATMTRDTSTSTAYMELSSLRSEDTAVYYCELGQGYWGQGTLVTVSS
VL: DIVMTQSPLSLPVTPGEPASISCRSSKSLLYKDGKTYLNWFLQRPGQSPQLLIYLMSTRASGVPDRFSGSGSGTDFTLKISRVEAEDVGVYYCQQLVEYPLTFGGGTKVEIKR
notes: as for B12
B15: H5L6 (antibody, human IgG1, kappa, V domains shown)
VH: QVQLVQSGAEVKKPGASVKVSCKASGYTFTSYWMHWVRQAPGQGLEWMGNINPSNGGTNYNEKFKSRVTMTRDTSTSTAYMELSSLRSEDTAVYYCELGQGYWGQGTLVTVSS
VL: DIVMTQSPLSLPVTPGEPASISCRSSKSLLYKDGKTYLNWFLQRPGQSPQLLIYLMSTRASGVPDRFSGSGSGTDFTLKISRVEAEDVGVYYCQQLVEYPLTFGGGTKVEIKR
notes: as for B12
B16: HcL11 (antibody, human IgG1, kappa)
heavy: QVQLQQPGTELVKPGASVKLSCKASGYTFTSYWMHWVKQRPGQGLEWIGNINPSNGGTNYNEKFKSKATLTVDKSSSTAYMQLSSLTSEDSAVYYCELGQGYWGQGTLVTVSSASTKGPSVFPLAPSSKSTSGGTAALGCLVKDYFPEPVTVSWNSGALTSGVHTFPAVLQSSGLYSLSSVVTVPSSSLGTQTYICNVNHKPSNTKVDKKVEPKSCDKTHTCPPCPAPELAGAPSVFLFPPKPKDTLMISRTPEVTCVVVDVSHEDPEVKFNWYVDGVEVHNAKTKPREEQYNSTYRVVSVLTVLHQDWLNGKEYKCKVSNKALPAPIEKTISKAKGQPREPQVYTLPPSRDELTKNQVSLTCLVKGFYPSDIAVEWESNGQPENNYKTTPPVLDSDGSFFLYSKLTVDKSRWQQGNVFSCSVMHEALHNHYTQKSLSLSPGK
light: DIVITQSPLSLPVTLGQPASISCRSSKSLLYKDGKTYLNWFQQRPGQSPQLLIYLMSTRASGVPDRFSGGGSGTDFTLKISRVEAEDVGVYYCQQLVEYPLTFGQGTKLEIKRTVAAPSVFIFPPSDEQLKSGTASVVCLLNNFYPREAKVQWKVDNALQSGNSQESVTEQDSKDSTYSLSSTLTLSKADYEKHKVYACEVTHQGLSSPVTKSFNRGEC
notes: Chimeric heavy chain Hc paired with humanised light chain L11
B17: H17L16 (antibody, human IgG1, kappa)
heavy: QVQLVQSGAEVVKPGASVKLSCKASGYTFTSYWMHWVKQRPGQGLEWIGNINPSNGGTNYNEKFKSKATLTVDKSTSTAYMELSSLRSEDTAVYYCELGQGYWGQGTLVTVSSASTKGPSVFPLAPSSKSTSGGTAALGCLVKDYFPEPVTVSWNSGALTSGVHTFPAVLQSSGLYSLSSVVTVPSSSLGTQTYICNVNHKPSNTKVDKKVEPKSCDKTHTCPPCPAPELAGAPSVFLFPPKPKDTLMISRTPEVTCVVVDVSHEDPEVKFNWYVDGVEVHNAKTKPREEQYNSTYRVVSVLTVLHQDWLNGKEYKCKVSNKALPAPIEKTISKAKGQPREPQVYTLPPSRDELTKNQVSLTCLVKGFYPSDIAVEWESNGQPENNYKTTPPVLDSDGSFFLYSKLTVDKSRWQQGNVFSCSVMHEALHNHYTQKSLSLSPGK
light: DIVMTQSPLSNPVTLGQPVSISCRSSKSLLYKDGKTYLNWFLQRPGQSPQLLIYLMSTRASGVPDRFSGGGSGTDFTLKISRVEAEDVGVYYCQQLVEYPLTFGQGTKLEIKRTVAAPSVFIFPPSDEQLKSGTASVVCLLNNFYPREAKVQWKVDNALQSGNSQESVTEQDSKDSTYSLSSTLTLSKADYEKHKVYACEVTHQGLSSPVTKSFNRGEC
notes: as for B12

Molecular target: T1, GST-human NOGO-A56
Test: SPR off-rate ranking (Biacore), CHO-K1 transfection supernatant over GST-human NOGO-A56 chip; single experiment
Method: (§1) hNOGO (GST-human NOGO-A56) was immobilised to a CM5 chip by primary amine coupling using the Biacore Wizard program designed for targeted immobilisation levels. The CM5 sensor surface was activated by passing a solution of 50 mM N-hydroxy-succinimide (NHS) and 200 mM N-ethyl-N′-dimethylaminopropyl […] (EDC). Then hNOGO in sodium acetate buffer, pH5.0 or pH 4.5, was passed over the chip and immobilised. After immobilisation was complete any still activated esters were blocked by an injection of 1M ethanolamine hydrochloride, pH8.5.
The hNOGO chip was prepared as for kinetic analysis. Cell supernatants where taken directly from transient transfections of CHO—K1 cells. These were passed directly over the sensor surface and the interaction measured. A mock transfected cell supernatant was used for double referencing to remove any artefacts due to the tissue culture media. All runs were referenced against a blanked sensor surface (one that had been activated and blocked as described earlier but had no addition of ligand). Analysis of binding was carried out using the BIAevaluation kinetic analysis software version 4.1.

Going from B1 to B2, the koff rises from 0.0138 s⁻¹ to 0.0211 s⁻¹ (1.5-fold).

B3 and B4 are within 1.5-fold of each other in koff: 0.0106 s⁻¹ for the first, 0.00965 s⁻¹ for the second.

B5 and B6 are within 1.5-fold of each other in koff: 0.00907 s⁻¹ for the first, 0.0114 s⁻¹ for the second.

Compared with B7, B8 is 7.7-fold lower in koff: 0.0457 s⁻¹ for the first, 0.00594 s⁻¹ for the second.

Compared with B9, B10 is 2.6-fold higher in koff: 0.00604 s⁻¹ for the first, 0.0158 s⁻¹ for the second.

Molecular target: T1, GST-human NOGO-A56
Test: SPR (Biacore 3000), GST-human NOGO-A56 on CM5 chip, antibody as analyte; single experiment
Method: (§2) The binding kinetics of the anti-NOGO monoclonal antibody (mAb) to recombinantly expressed human NOGO-A (GST-human NOGO-A56) was analysed using the Biacore3000 biosensor. The hNOGO-A chip was prepared as follows:
as §1
(§3) The anti-NOGO mAbs were diluted down in HBS-EP (10 mM HEPES, pH 7.4, 150 mM NaCl, 3 mM EDTA, and 0.005% P-20 surfactant) and binding studies were carried out at range of defined antibody concentrations. All runs were referenced against a blanked sensor surface (one that had been activated and blocked as described earlier but had no addition of ligand). Analysis of binding was carried out using the BIAevaluation kinetic analysis software version 4.1. Biacore analysis of other antibodies of the invention essentially followed the same protocol as described herein.

Going from B11 to B12, the Kd rises from 12.9 nM to 19.4 nM (1.5-fold). The first binds more tightly here.

First: B13
Second: B14
The Kd of the first is 11-fold lower: 1.98 nM for the first, 21.4 nM for the second. The first binds more tightly here.

Going from B15 to B16, the Kd falls from 30.3 nM to 3.55 nM (8.5-fold). The second binds more tightly here.

B11 and B12 are within 1.5-fold of each other in koff: 0.0212 s⁻¹ for the first, 0.0233 s⁻¹ for the second.

First: B13
Second: B14
The koff of the first is 2.7-fold lower: 0.00938 s⁻¹ for the first, 0.0254 s⁻¹ for the second.

First: B15
Second: B16
The koff of the first is 3.5-fold higher: 0.047 s⁻¹ for the first, 0.0134 s⁻¹ for the second.

B11 and B12 are within 1.5-fold of each other in kon: 1.64e+06 M⁻¹ s⁻¹ for the first, 1.19e+06 M⁻¹ s⁻¹ for the second.

Compared with B13, B14 is 4-fold lower in kon: 4.8e+06 M⁻¹ s⁻¹ for the first, 1.2e+06 M⁻¹ s⁻¹ for the second.

Going from B15 to B16, the kon rises from 1.5e+06 M⁻¹ s⁻¹ to 3.78e+06 M⁻¹ s⁻¹ (2.5-fold).

Molecular target: T1, GST-human NOGO-A56
Test: SPR (Biacore 3000), GST-human NOGO-A56 amine-coupled to CM5 chip, antibody as analyte; mean (SD) of four experiments
Method: as §2, §1, §3

B17 gave a Kd of 1.82 nM.

B17 was tested, and the koff was 0.0061 s⁻¹.

For B17, the kon was 3.38e+06 M⁻¹ s⁻¹.
